Experimental data published in article PMC11535055, “ER-phagy restrains inflammatory responses through its receptor UBAC2” (The EMBO Journal, 2024).
Numbering of substitutions follows the chain as printed. Names may count otherwise.

B1: UBAC2, endogenous (natural protein, human (endogenous in HeLa, THP-1, HT-29), UniProt Q8NBM4 36-344, looked up)
chain: HCQKLFVYDLHAVKNDFQIWRLICGRIICLDLKDTFCSSLLIYNFRIFERRYGSRKFASFLLGSWVLSALFDFLLIEAMQYFFGITAASNLPSGFLAPVFALFVPFYCSIPRVQVAQILGPLSITNKTLIYILGLQLFTSGSYIWIVAISGLMSGLCYDSKMFQVHQVLCIPSWMAKFFSWTLEPIFSSSEPTSEARIGMGATLDIQRQQRMELLDRQLMFSQFAQGRRQRQQQGGMINWNRLFPPLRQRQNVNYQGGRQSEPAAPPLEVSEEQVARLMEMGFSRGDALEALRASNNDLNVATNFLLQH
notes: UBAC2 endogenous in human cell lines; also called ubiquitin-associated domain-containing protein 2; source: endogenous, lysates of HeLa cells, THP-1-derived macrophages and HT-29 cells
B2: UBAC2 S223D, transfected (cross-linking experiments) (natural protein, human, UniProt Q8NBM4 36-344, looked up)
chain: B1 chain with S188D
notes: UBAC2, human; also called S223D mutant form of UBAC2
B3: UBAC2 wild type, transfected (cross-linking experiments) (natural protein, human, UniProt Q8NBM4 36-344, looked up)
chain: B1 chain
notes: UBAC2, human; also called WT UBAC2

Columns and labels:
GABARAP = GABARAP (UniProt O95166); assay: co-IP Flag-GABARAP with HA-UBAC2; conditions: reference: wild type; sites S223
[1] = biological target: the molecule itself; assay: cross-linking; extracts of HeLa cells (also WT THP-1 macrophages and HT-29 cells) treated with TG or EBSS in the presence of Baf A1 (0.2 uM); 2 mM disuccinimidyl suberate (DSS), immunoblot for endogenous UBAC2
[2] = biological target: the molecule itself; assay: cross-linking; 293T cells transfected with WT UBAC2 or S223 mutants, TG (1 uM, 1 h) or EBSS (3 h) with Baf A1 (0.2 uM), with scramble or MARK2 siRNA; lysates treated with 2 mM DSS, immunoblot

Row | Molecule | stoichiometry N [2] | also measured
1 | UBAC2 (from UniProt Q8NBM4) S223A |  | binding against the reference (GABARAP): weaker
2 | B1 |  | stoichiometry N [1]: 2
3 | B2 | 2 | 
4 | B3 | 2 | 
